Laboratory results reported in doi:10.1101/2023.10.16.562450 (bioRxiv, 2023).
Values joined by “and” are separate entries in the source; they are usually repeats but may differ in a detail not shown here. Equal values may be shown once.

Experiments:
[1] = target: recombinant ZIKV sNS1 (full-length ZIKV NS1, residues 3-352, GZ02 strain) (Zika virus (GZ02 strain)); assay: negative staining EM
[2] = target: recombinant ZIKV sNS1 (full-length ZIKV NS1, residues 3-352, GZ02 strain) (Zika virus, strain GZ02, UniProt A0A146CJG7, strain); assay: cryo-EM structure
cell-surface ZIKV NS1 = cell-surface ZIKV NS1 (Zika virus, strain ; stand-in …, UniProt A0A146CJG7); assay: flow cytometry on cells
ZIKV-derived sNS1 = ZIKV-derived sNS1 (Zika virus, strain ; stand-in …, UniProt A0A146CJG7); assay: ELISA
DENV2 NS1 = DENV2 NS1 (Dengue virus 2, strain ; …, UniProt P29990); assay: ELISA
Chain of DENV2 NS1 (P29990 776-1127): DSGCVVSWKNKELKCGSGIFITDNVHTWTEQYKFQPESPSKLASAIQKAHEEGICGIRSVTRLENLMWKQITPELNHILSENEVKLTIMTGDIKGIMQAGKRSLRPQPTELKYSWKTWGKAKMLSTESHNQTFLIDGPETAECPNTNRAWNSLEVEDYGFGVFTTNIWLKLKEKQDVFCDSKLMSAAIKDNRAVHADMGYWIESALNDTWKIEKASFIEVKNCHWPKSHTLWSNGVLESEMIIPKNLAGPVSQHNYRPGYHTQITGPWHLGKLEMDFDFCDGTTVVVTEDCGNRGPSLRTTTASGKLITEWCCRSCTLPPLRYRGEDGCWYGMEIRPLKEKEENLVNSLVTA

DENV4 NS1 = DENV4 NS1 (Dengue virus 4, strain ; …, UniProt P09866); assay: ELISA
Chain of DENV4 NS1 (P09866 775-1126): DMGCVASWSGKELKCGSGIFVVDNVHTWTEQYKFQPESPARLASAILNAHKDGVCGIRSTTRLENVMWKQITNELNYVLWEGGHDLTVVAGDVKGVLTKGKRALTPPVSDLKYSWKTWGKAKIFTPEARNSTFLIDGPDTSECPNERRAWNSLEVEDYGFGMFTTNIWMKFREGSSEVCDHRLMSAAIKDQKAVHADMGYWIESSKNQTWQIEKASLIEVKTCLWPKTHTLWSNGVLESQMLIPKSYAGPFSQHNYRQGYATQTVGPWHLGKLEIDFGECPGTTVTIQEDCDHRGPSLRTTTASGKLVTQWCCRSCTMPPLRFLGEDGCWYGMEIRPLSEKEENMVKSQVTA

Row | Molecule | stoichiometry N [2] | percentage of cell staining at 10 ug/ml (cell-surface ZIKV NS1) [%] | Kd (ZIKV-derived sNS1) [nM] | other results
1 | recombinant ZIKV sNS1 (full-length ZIKV NS1, residues 3-352, GZ02 strain) (natural protein) | – | – | – | stoichiometry N [1]: 4
2 | Fab 14G5 (Fab, V domains shown) VH: QVQLVQSGAEVKKPGESLKISCKGSGYSFTSYWIGWVRQMPGKGLEWMGIIYPGDSDTRYSPSFQGQVTMSADRSISTAYLQWSSLKASDTAMYYCARSNVDGSTDYWGQGTLVTVSS VL: SYELTQPPSVSVSPGQTARITCSGDALPKQYAFWYQQKPGQAPVLVIYKDSERPSGIPERFSGSSSGTTVTLTISGVQAEDEADYYCQSADSSDTYVPYVFGTGTKVTVL | 1 ratio Fab to NS1 | – | – | –
3 | mAb 14G5 (IgG) (antibody, V domains shown) VH: QVQLVQSGAEVKKPGESLKISCKGSGYSFTSYWIGWVRQMPGKGLEWMGIIYPGDSDTRYSPSFQGQVTMSADRSISTAYLQWSSLKASDTAMYYCARSNVDGSTDYWGQGTLVTVSS VL: SYELTQPPSVSVSPGQTARITCSGDALPKQYAFWYQQKPGQAPVLVIYKDSERPSGIPERFSGSSSGTTVTLTISGVQAEDEADYYCQSADSSDTYVPYVFGTGTKVTVL | – | 63 | 0.15 ± 0.03 | –
4 | Fab 4B8 (Fab, V domains shown) VH: EVQLVESGGGLIQPGGSLRLSCAASGFTISSKYMSWVRQAPGKGLEWVSIIYSSGSTYYADSVKGRFTISRDISKNTLYLQMNSLRAEDTAVYYCASLGSGSAFGYWGQGTLVTVSS VL: DIVMTQSPSSVSASVGDRVTITCRASQGISTWLAWYQQKPGKAPRLLIYAASSLQSGVPSRFSGSGSGTDFTLTISSLQPEDFATYYCQQANSFPFTFGPGTKVEIK | 1 ratio Fab to NS1 and 4 copies of Fab fragment for each NS1 tetramer | – | – | –
5 | mAb 4B8 (IgG) (antibody, V domains shown) VH: EVQLVESGGGLIQPGGSLRLSCAASGFTISSKYMSWVRQAPGKGLEWVSIIYSSGSTYYADSVKGRFTISRDISKNTLYLQMNSLRAEDTAVYYCASLGSGSAFGYWGQGTLVTVSS VL: DIVMTQSPSSVSASVGDRVTITCRASQGISTWLAWYQQKPGKAPRLLIYAASSLQSGVPSRFSGSGSGTDFTLTISSLQPEDFATYYCQQANSFPFTFGPGTKVEIK | – | 70 | 0.8 ± 0.33 | –
6 | Fab 4F10 (Fab, V domains shown) VH: EVQLLESGPGLVKPSQTLSLTCTVSGGSISSGGYYWSWIRQHPGKGLEWIGYIYYSGSTYYNPSLKSRVAMSVDTSKNQFSLTLSSVTAADTAVYYCARAIDNFYDNSIWGQGTLVTVSS VL: DIQMTQSPSSLSASVGDRVTIACRASQSITNFLNWYQQKPGKAPKLLIYAVSNLQSGVPSRFSGSGSGTDFTLTISSVRPEDFATYFCQQSYSPPYTFGQGTKVDIK | 1 ratio Fab to NS1 | – | – | –
7 | mAb 4F10 (IgG) (antibody, V domains shown) VH: EVQLLESGPGLVKPSQTLSLTCTVSGGSISSGGYYWSWIRQHPGKGLEWIGYIYYSGSTYYNPSLKSRVAMSVDTSKNQFSLTLSSVTAADTAVYYCARAIDNFYDNSIWGQGTLVTVSS VL: DIQMTQSPSSLSASVGDRVTIACRASQSITNFLNWYQQKPGKAPKLLIYAVSNLQSGVPSRFSGSGSGTDFTLTISSVRPEDFATYFCQQSYSPPYTFGQGTKVDIK | – | 58 | 0.06 ± 0.01 | binding result (DENV2 NS1): binds; binding result (DENV4 NS1): binds
8 | Fab 3G2 (Fab, V domains shown) VH: EVQLLESGGGLIQPGGSLRLSCAASGLTVSNNYMNWVRQAPGKGLEWVSIIYSSGSTYYADSVKGRFTISRDTRKNTLYLQMHSLRVEDTAVYYCARERGWLDYWGQGTLVTVSS VL: VIWMTQSPSSLSASVGDRVTITCRASQSVSSHLNWYQQKPGKAPKLLIYAVSSLQSGVPSRFSGGDSGTDFTLTIASLQPEDFATYYCQQTYTIPRTFGQGTKVEIK | 1 ratio Fab to NS1 and 4 copies of Fab fragment for each NS1 tetramer | – | – | –
9 | mAb 3G2 (IgG) (antibody, V domains shown) VH: EVQLLESGGGLIQPGGSLRLSCAASGLTVSNNYMNWVRQAPGKGLEWVSIIYSSGSTYYADSVKGRFTISRDTRKNTLYLQMHSLRVEDTAVYYCARERGWLDYWGQGTLVTVSS VL: VIWMTQSPSSLSASVGDRVTITCRASQSVSSHLNWYQQKPGKAPKLLIYAVSSLQSGVPSRFSGGDSGTDFTLTIASLQPEDFATYYCQQTYTIPRTFGQGTKVEIK | – | 76 | 0.12 ± 0.02 | –
10 | Fab 2E11 (Fab, V domains shown) VH: SVELIESGGGVVQPGRSLRLSCAASGFTFSNYAMHWVRQAPGKGLEWVAFISYDGSNKYYADSVKGRFTISRDNSKNTLSLQMNSLRAEDTALYYCARVFNGYEGDYWGQGTLVTVSS VL: LPVLTQPPSVSVSPGQTARITCSGDALPKKYAYWYQQKSGQAPVLVIYEDSKRPSGIPERFSGSSSGTMATLTISGAQVEDEADYYCYSTDSSGNLYVFGTGTKVTVL | 1 ratio Fab to NS1 | – | – | –
11 | mAb 2E11 (IgG) (antibody, V domains shown) VH: SVELIESGGGVVQPGRSLRLSCAASGFTFSNYAMHWVRQAPGKGLEWVAFISYDGSNKYYADSVKGRFTISRDNSKNTLSLQMNSLRAEDTALYYCARVFNGYEGDYWGQGTLVTVSS VL: LPVLTQPPSVSVSPGQTARITCSGDALPKKYAYWYQQKSGQAPVLVIYEDSKRPSGIPERFSGSSSGTMATLTISGAQVEDEADYYCYSTDSSGNLYVFGTGTKVTVL | – | 59 | 0.22 ± 0.04 | –
